# Laboratory results as given in article PMC8131360, “Phospholipid translocation captured in a bifunctional membrane protein MprF” (Nature Communications, 2021).
# B1: Multiple Peptide Resistance Factor from Rhizobium tropici (RtMprF) (natural protein, UniProt A0A6P1C618 1-869, looked up)
# chain: MSSPIDLESADEELEERGGIVGLLNRYRALIVAVLTVAVFCIAAYAIYDLTTEVRYDDVVHALTTTKISSVLLALLFTGLSFASLIFYDQNALEYIGKRLPFPHVALTSFSAYAVGNTAGFGALSAGAIRYRAYTRLGLSPDDITRVIAFVTLAFGLGLASVGAMALLVIADEIGPLISVDGLWLRLIAIAILAALAFVVYAGRNGREVRIGPVAVRLPDSRTWSRQFLVTAFDIAASASVLYVLLPETSIGWPGFFAIYAIAVGLGVLSHVPAGFGVFETIIIAWLGSSVNEDAVLSSLVLYRVIYNVIPLVIAIAAISVAELRRFVDHPVASSMRRIGARLMPQLLSAFALLLGMMLVFSSVTPTPDHNLIVLSDYLPLSLVESAHFLSSLLGLAIIVAARGLSQRLDGAWWVSTFSALFALFFSLLKAIAIVEAGLLAFFVFSLVVSRRLFKRPASLLNQTLTAGWLTAIAVVCIGAIVVLFFVYRDVGYSNELWWQFEFADEAPRGLRAALGISIVSSAIAIFSLLRPATKRPEPVSDDAVARAVEIVRKQGVADANLVRMGDKSIMFSEKGDAFIMYGKQGRSWIALFDPVGPRQALPDLIWRFVETARAAGCRSVFYQISPALLSYCADAGLRAFKLGELAVVNLANFELKGGKWANLRQTASRAVRDGLEFAVIEPQDIPDVLDQLAHVSDTWLADHNAKEKSFSLGAFDPDYVCSQPVGVLKKDGKIVAFANILMTETKEEGSVDLMRFSPDAPKGSMDFLFVQILEYLKGEGFQRFNLGMAPLSGMSRRESAPVWDRVGGTVFEHGERFYNFKGLRAFKSKFHPEWQPRYLAVSGGVSPMIALMDATFLIGGGLKGVVRK
# notes: MprF (mprF gene) from Rhizobium tropici, full-length protein of 869 amino acid residues; flippase domain (Subdomain 1 Leu24-Arg325, Subdomain 2 Ser334-Arg530) and synthase domain (Pro539-Gly860); also called RtMprF(DDM); RtMprF(GDN); source: E. coli C41(DE3), pET21b; purified (Ni-NTA in β-DDM or GDN) and reconstituted in POPG/MSP1E3D1 nanodiscs (Ni-NTA, SEC); also unpurified, in the E. coli …
# Target: the molecule itself
# Assay: cryo-EM structure; full-length RtMprF purified in β-DDM or GDN, reconstituted with POPG and MSP1E3D1 (1:2:100) in lipid nanodiscs; 20 mM Tris-HCl pH 7.5, 300 mM NaCl; single-particle analysis, C2 symmetry imposed
protein,measurement,value
B1,stoichiometry N,2
